In test [1] the target is T1, human GLP-1 receptor (human, UniProt P43220 24-463). Kind of test: cell-based or functional assay.
Test [2] has as its target T2, human glucagon receptor (human, UniProt P47871 26-477). Kind of test: cell-based or functional assay.
The target in test [3] is T1, human GLP-1 receptor. Kind of test: displacement of 125I-GLP-1(7-36)NH2, membranes with human GLP-1R, SPA. As to the method: The receptor binding of each compound to the human GLP-1 receptor was measured in a displacement binding assay. […] Each derivative was added in a series of concentrations to isolated membranes containing the human GLP-1 receptor and displacement of the labelled ligand was monitored. The receptor binding was reported as the concentration at which half of the labelled ligand was displaced from the receptor, the IC₅₀ value.
A general note: Loss of bound radioactivity is the signal in a displacement assay; it reports binding, not function.

For test [4], the target named is T2, human glucagon receptor. Kind of test: displacement of 125I-glucagon, membranes with human glucagon receptor, SPA. How it is done: The receptor binding of each compound to the human glucagon receptor was measured in a displacement binding assay. […] Each derivative was added in a series of concentrations to isolated membranes containing the human glucagon receptor and displacement of the labelled ligand is monitored. The receptor binding was reported as the concentration at which half of the labelled ligand is displaced from the receptor, the IC₅₀ value.

Numbered stars: 1 amine (or outer) side, 2 acyl side, 3 side chain; on linkers, the order of the positions; unused ones are H or OH. Square brackets hold non-standard residues; d marks the D form. Side chains are listed from the residue outwards. Ends that are not written are not given here. * marks the point of attachment. C18 diacid = O=C(O)CCCCCCCCCCCCCCCCC(=O)*; γGlu = O=C(O)[C@H](CCC(=O)[*:2])N[*:1]; Ac4c = NC1(C(=O)O)CCC1; AEEA = NCCOCCOCC(=O)O; Aib = CC(C)(N)C(=O)O

A word on the IC50: it is the concentration that gives 50% inhibition. Read a high IC50 as weaker potency.

T2 sequence (P47871 26-477): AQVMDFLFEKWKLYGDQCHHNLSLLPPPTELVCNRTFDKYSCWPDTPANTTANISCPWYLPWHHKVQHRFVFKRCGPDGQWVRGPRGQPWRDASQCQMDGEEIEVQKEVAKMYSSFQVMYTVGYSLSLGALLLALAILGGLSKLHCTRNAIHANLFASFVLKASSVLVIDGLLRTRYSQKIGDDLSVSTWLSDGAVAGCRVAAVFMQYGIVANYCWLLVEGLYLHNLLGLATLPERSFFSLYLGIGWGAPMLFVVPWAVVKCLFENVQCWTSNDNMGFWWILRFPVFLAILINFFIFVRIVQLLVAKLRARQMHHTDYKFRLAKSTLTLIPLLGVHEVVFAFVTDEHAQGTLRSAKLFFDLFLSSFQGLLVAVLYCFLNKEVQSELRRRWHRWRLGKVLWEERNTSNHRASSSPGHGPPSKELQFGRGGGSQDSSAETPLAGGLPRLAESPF

B1: N^ε28-[(4S)-4-carboxy-4-[[(4S)-4-carboxy-4-[[2-[2-[2-[[2-[2-[2-[[(4S)-4-carboxy-4-[[(4S)-4-carboxy-4-(17-carboxyheptadecanoylamino)butanoyl]amino]butanoyl]amino … (peptide)
peptide: H[Ac4c]QGTFTSDLSKYLESRRAREFVQWLLK([γGlu-γGlu-AEEA-AEEA-γGlu-γGlu-C18 diacid])T-NH2
modifications: N-terminus assumed
SMILES: CC(C)C[C@H](NC(=O)[C@H](Cc1ccc(O)cc1)NC(=O)[C@H](CCCCN)NC(=O)[C@H](CO)NC(=O)[C@H](CC(C)C)NC(=O)[C@H](CC(=O)O)NC(=O)[C@H](CO)NC(=O)[C@@H](NC(=O)[C@H](Cc1ccccc1)NC(=O)[C@@H](NC(=O)CNC(=O)[C@H](CCC(N)=O)NC(=O)C1(NC(=O)[C@@H](N)Cc2c[nH]cn2)CCC1)[C@@H](C)O)[C@@H](C)O)C(=O)N[C@@H](CCC(=O)O)C(=O)N[C@@H](CO)C(=O)N[C@@H](CCCNC(=N)N)C(=O)N[C@@H](CCCNC(=N)N)C(=O)N[C@@H](C)C(=O)N[C@@H](CCCNC(=N)N)C(=O)N[C@@H](CCC(=O)O)C(=O)N[C@@H](Cc1ccccc1)C(=O)N[C@H](C(=O)N[C@@H](CCC(N)=O)C(=O)N[C@@H](Cc1c[nH]c2ccccc12)C(=O)N[C@@H](CC(C)C)C(=O)N[C@@H](CC(C)C)C(=O)N[C@@H](CCCCNC(=O)CC[C@H](NC(=O)CC[C@H](NC(=O)COCCOCCNC(=O)COCCOCCNC(=O)CC[C@H](NC(=O)CC[C@H](NC(=O)CCCCCCCCCCCCCCCCC(=O)O)C(=O)O)C(=O)O)C(=O)O)C(=O)O)C(=O)N[C@H](C(N)=O)[C@@H](C)O)C(C)C
As for B1, the “EC50 GLP-1R, CRE luciferase reporter gene assay in BHK cells” value (shortened to “EC50 GLP-1R”) with human GLP-1 receptor [1] came to 6 pM. Moreover, in the test with human glucagon receptor [2], the “EC50 GlucR, CRE luciferase reporter gene assay in BHK cells” value (shortened to “EC50 GlucR”) was found to be 11 pM. This molecule returned an IC50 with human GLP-1 receptor [3] of 300 pM.

B2: N^ε28-[(4S)-4-carboxy-4-[[(4S)-4-carboxy-4-[[2-[2-[2-[[2-[2-[2-[[(4S)-4-carboxy-4-(17-carboxyheptadecanoylamino)butanoyl]amino]ethoxy]ethoxy]acetyl]amino]ethoxy … (peptide)
peptide: H[Ac4c]QGTFTSDLSKYLESRRAREFVQWLLK([γGlu-γGlu-AEEA-AEEA-γGlu-C18 diacid])T-NH2
modifications: N-terminus assumed
SMILES: CC(C)C[C@H](NC(=O)[C@H](Cc1ccc(O)cc1)NC(=O)[C@H](CCCCN)NC(=O)[C@H](CO)NC(=O)[C@H](CC(C)C)NC(=O)[C@H](CC(=O)O)NC(=O)[C@H](CO)NC(=O)[C@@H](NC(=O)[C@H](Cc1ccccc1)NC(=O)[C@@H](NC(=O)CNC(=O)[C@H](CCC(N)=O)NC(=O)C1(NC(=O)[C@@H](N)Cc2c[nH]cn2)CCC1)[C@@H](C)O)[C@@H](C)O)C(=O)N[C@@H](CCC(=O)O)C(=O)N[C@@H](CO)C(=O)N[C@@H](CCCNC(=N)N)C(=O)N[C@@H](CCCNC(=N)N)C(=O)N[C@@H](C)C(=O)N[C@@H](CCCNC(=N)N)C(=O)N[C@@H](CCC(=O)O)C(=O)N[C@@H](Cc1ccccc1)C(=O)N[C@H](C(=O)N[C@@H](CCC(N)=O)C(=O)N[C@@H](Cc1c[nH]c2ccccc12)C(=O)N[C@@H](CC(C)C)C(=O)N[C@@H](CC(C)C)C(=O)N[C@@H](CCCCNC(=O)CC[C@H](NC(=O)CC[C@H](NC(=O)COCCOCCNC(=O)COCCOCCNC(=O)CC[C@H](NC(=O)CCCCCCCCCCCCCCCCC(=O)O)C(=O)O)C(=O)O)C(=O)O)C(=O)N[C@H](C(N)=O)[C@@H](C)O)C(C)C
Consider B2, for which the “EC50 GLP-1R” value with human GLP-1 receptor [1] was 3 pM. In addition, the “EC50 GlucR” value with human glucagon receptor [2] came to 10 pM. In addition, the IC50 in the test with human GLP-1 receptor [3] is 300 pM.
Take H[Aib]QGTFTSDLSKYLESRRAREFVQWLLKT-NH2 (not fully specified (residue 28)): the “EC50 GLP-1R” value in the test with human GLP-1 receptor [1] stood at 4.4 pM. Also, the “EC50 GlucR” value in the test with human glucagon receptor [2] was determined as 62.4 pM. The IC50 came out at 400 pM with human GLP-1 receptor [3] and 6700 pM in the test with human glucagon receptor [4].
With H[Aib]QGTFTSDLSKYLESKRAREFVQWLLK([Gly-Ser-Glu-Gly-Ser-γGlu-γGlu-C18 diacid])T-NH2, the “EC50 GLP-1R” value in the test with human GLP-1 receptor [1] turned out to be 5.7 pM. Besides, the IC50 worked out at 200 pM in the test with human GLP-1 receptor [3] and 5100 pM with human glucagon receptor [4].

B3: N^ε16-[(4S)-4-carboxy-4-[[(4S)-4-carboxy-4-[[2-[2-[2-[[2-[2-[2-[[(4S)-4-carboxy-4-(17-carboxyheptadecanoylamino)butanoyl]amino]ethoxy]ethoxy]acetyl]amino]ethoxy … (peptide)
peptide: H[Aib]QGTFTSDLSKYLDK([γGlu-γGlu-AEEA-AEEA-γGlu-C18 diacid])KRAQEFVQWLLNT-NH2
modifications: N-terminus assumed
SMILES: CC(C)C[C@H](NC(=O)[C@H](Cc1ccc(O)cc1)NC(=O)[C@H](CCCCN)NC(=O)[C@H](CO)NC(=O)[C@H](CC(C)C)NC(=O)[C@H](CC(=O)O)NC(=O)[C@H](CO)NC(=O)[C@@H](NC(=O)[C@H](Cc1ccccc1)NC(=O)[C@@H](NC(=O)CNC(=O)[C@H](CCC(N)=O)NC(=O)C(C)(C)NC(=O)[C@@H](N)Cc1c[nH]cn1)[C@@H](C)O)[C@@H](C)O)C(=O)N[C@@H](CC(=O)O)C(=O)N[C@@H](CCCCNC(=O)CC[C@H](NC(=O)CC[C@H](NC(=O)COCCOCCNC(=O)COCCOCCNC(=O)CC[C@H](NC(=O)CCCCCCCCCCCCCCCCC(=O)O)C(=O)O)C(=O)O)C(=O)O)C(=O)N[C@@H](CCCCN)C(=O)N[C@@H](CCCNC(=N)N)C(=O)N[C@@H](C)C(=O)N[C@@H](CCC(N)=O)C(=O)N[C@@H](CCC(=O)O)C(=O)N[C@@H](Cc1ccccc1)C(=O)N[C@H](C(=O)N[C@@H](CCC(N)=O)C(=O)N[C@@H](Cc1c[nH]c2ccccc12)C(=O)N[C@@H](CC(C)C)C(=O)N[C@@H](CC(C)C)C(=O)N[C@@H](CC(N)=O)C(=O)N[C@H](C(N)=O)[C@@H](C)O)C(C)C
Turning to B3, the figures for the half-inhibitory concentration (IC50) in the test with human GLP-1 receptor [3] and with human glucagon receptor [4] were 2400 pM and 1100 pM, respectively.
Consider H[Ac4c]QGTFTSDLSKYLESKRAREFVQWLLK([γGlu-γGlu-Ser-Glu-Ser-γGlu-γGlu-C18 diacid])T-NH2, for which the “EC50 GlucR” value in the test with human glucagon receptor [2] amounted to 5 pM. Also, the results for the IC50 in the test with human GLP-1 receptor [3] and with human glucagon receptor [4] were 300 pM and 600 pM, respectively.
Turning to H[Ac4c]QGTFTSDLSKYLESKRAREFVQWLLK([Gly-Ser-Glu-Gly-Ser-γGlu-γGlu-C18 diacid])T-NH2, in the test with human glucagon receptor [2], the “EC50 GlucR” value amounted to 4 pM. The IC50 in the test with human GLP-1 receptor [3] was found to be 200 pM; with human glucagon receptor [4], 600 pM.
With H[Aib]QGTFTSDLSKYLESKRAREFVQWLLK([γGlu-γGlu-Ser-Glu-Ser-γGlu-γGlu-C18 diacid])T-NH2, in the test with human GLP-1 receptor [1], the “EC50 GLP-1R” value worked out at 2.7 pM. The figures for the IC50 with human GLP-1 receptor [3] and with human glucagon receptor [4] were 200 pM and 1700 pM, respectively.
Consider H[Aib]QGTFTSDLSKYLDKKAAREFVAWLLNT-NH2 (not fully specified), for which the IC50 in the test with human GLP-1 receptor [3] was 200 pM; in the test with human glucagon receptor [4] it was 53000 pM.

Source of the values: patent US20150374794A1 (Novo Nordisk, published 2015).
